Data reported in patent publication US20140314775A1 (ADRENOMED, published 2014).

Experiments:
[1] = molecular target: T1, human Adrenomedullin (hADM 1-52) (human, not fully specified; C-terminal amide (printed as PRSKISPQGY-NH2 for aa 43-52 of ADM, SEQ ID NO: 25; not restated for the peptide used in the assays)); assay: cell-based or functional assay
T1 peptide: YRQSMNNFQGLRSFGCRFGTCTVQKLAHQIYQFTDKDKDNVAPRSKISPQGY

[2] = molecular target: T1, human Adrenomedullin (hADM 1-52); assay: SPR, Biacore 2000; antibody captured via anti-mouse Fc on CM5, Adrenomedullin as analyte
Experimental: Reversible immobilization of the antibodies was performed using an anti-mouse Fc antibody covalently coupled in high density to a CM5 sensor surface according to the manufacturer's instructions (mouse antibody capture kit; GE Healthcare).

IC50 (read off the curve; half of the partial plateau), in the presence of 5.63 nM hADM [1]: ~2 µg/mL
Kd [2]: 5.9 nM
B1: NT-H (antibody, V domains shown)
VH: QVQLQQSGAELMKPGASVKISCKATGYTFSRYWIEWVKQRPGHGLEWIGEILPGSGSTNYNEKFKGKATITADTSSNTAYMQLSSLTSEDSAVYYCTEGYEYDGFDYWGQGTTLTVSS
VL: DVLLSQTPLSLPVSLGDQATISCRSSQSIVYSNGNTYLEWYLQKPGQSPKLLIYRVSNRFSGVPDRFSGSGSGTDFTLKISRVEAEDLGVYYCFQGSHIPYTFGGGTKLEIK
notes: also called antibody NT-H; NT-H antibody
